Results as given in patent US20200405841A1 (GlaxoSmithKline, published 2020).

Tests used:
[1] = target: T1, UspA2 of Moraxella catarrhalis strain ATCC 25238 (Moraxella catarrhalis); test: cell-based or functional assay
T1 chain: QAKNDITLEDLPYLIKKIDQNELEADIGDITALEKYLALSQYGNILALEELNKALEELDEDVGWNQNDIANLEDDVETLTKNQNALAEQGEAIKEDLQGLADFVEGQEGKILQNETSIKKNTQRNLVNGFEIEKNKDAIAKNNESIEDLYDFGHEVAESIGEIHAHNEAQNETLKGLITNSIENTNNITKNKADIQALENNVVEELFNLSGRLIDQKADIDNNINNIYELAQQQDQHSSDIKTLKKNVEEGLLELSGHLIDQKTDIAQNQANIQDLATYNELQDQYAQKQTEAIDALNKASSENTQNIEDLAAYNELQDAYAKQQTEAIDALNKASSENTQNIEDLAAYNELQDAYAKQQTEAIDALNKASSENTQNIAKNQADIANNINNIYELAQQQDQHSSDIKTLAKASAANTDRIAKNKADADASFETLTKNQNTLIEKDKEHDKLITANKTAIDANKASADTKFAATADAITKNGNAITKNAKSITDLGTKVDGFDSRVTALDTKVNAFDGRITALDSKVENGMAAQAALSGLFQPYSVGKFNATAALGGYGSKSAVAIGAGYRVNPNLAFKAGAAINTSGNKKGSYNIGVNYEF

[2] = target: UspA2H of Moraxella catarrhalis UK isolate 415 (AERIS study) (Moraxella catarrhalis); test: cell-based or functional assay
[3] = target: UspA2H of Moraxella catarrhalis UK isolate 240 (AERIS study) (Moraxella catarrhalis); test: cell-based or functional assay
[4] = target: UspA2H of Moraxella catarrhalis UK isolate 193 (AERIS study) (Moraxella catarrhalis); test: cell-based or functional assay
[5] = target: UspA2 of Moraxella catarrhalis Denmark isolate BBH18 (Moraxella catarrhalis); test: cell-based or functional assay
[6] = target: UspA2H of Moraxella catarrhalis UK isolate 296 (AERIS study) (Moraxella catarrhalis); test: cell-based or functional assay
[7] = target: UspA2H of Moraxella catarrhalis UK isolate 268 (AERIS study) (Moraxella catarrhalis); test: cell-based or functional assay
[8] = target: UspA1 of Moraxella catarrhalis strain ATCC 43617 (Moraxella catarrhalis); test: cell-based or functional assay
[9] = target: T2, UspA2 of Moraxella catarrhalis Dutch isolate F10 (Moraxella catarrhalis); test: cell-based or functional assay
T2 chain: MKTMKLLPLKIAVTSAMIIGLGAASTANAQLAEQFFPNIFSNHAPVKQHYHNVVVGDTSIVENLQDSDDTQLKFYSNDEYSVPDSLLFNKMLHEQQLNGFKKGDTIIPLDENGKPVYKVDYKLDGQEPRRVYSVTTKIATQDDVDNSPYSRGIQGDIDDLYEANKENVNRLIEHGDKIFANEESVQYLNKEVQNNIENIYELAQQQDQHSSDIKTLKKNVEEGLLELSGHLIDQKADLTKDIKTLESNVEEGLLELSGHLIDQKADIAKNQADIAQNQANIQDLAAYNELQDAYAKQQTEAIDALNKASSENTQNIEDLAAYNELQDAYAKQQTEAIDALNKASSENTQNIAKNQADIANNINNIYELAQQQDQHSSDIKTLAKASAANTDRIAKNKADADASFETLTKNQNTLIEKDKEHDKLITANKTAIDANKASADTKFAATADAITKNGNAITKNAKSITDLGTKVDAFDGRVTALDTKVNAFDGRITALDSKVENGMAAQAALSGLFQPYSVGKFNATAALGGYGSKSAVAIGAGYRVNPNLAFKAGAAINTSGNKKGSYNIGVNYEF

[10] = target: T3, recombinant soluble UspA2 (SEQ ID NO: 53) (Moraxella catarrhalis); test: negative-stain electron microscopy of the complex
T3 construct: also called MC-009; soluble UspA2 recombinant protein
T3 chain: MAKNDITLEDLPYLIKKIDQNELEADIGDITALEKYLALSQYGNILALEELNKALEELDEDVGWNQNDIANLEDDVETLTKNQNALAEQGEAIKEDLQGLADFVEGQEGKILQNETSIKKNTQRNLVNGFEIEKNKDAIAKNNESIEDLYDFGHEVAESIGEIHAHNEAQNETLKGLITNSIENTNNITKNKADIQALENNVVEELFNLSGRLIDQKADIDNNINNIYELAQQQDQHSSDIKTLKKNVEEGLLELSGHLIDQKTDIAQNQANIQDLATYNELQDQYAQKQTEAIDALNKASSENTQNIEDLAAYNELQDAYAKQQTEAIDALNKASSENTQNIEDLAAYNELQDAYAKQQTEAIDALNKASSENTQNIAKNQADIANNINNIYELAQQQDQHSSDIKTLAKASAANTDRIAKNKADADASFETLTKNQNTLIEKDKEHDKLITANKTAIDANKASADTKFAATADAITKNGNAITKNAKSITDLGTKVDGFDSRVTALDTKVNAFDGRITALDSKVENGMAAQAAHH

B1: FHUSPA2/10 monoclonal antibody (antibody, V domains shown)
VH: EVQLQQSGTVLARPGASVKMSCKASGYSFTSYWMHWVKQRPGQGLEWIGAIYPGNSDTSYNQKFKGKAKLTAVTSASTAYMELSNLTNEDSAVYSCTLLRFLDAYWGQGTLVTVSA
VL: QIVLSQSPAILSASPGEKVTMTCRASSSVSYMHWYQQKPGSSPKPWIYATSNLASGVPARFSGSGSGTSYSLTISRVEAEDAATYYCQQWSSNPPTFGGGSKLEIK
notes: Hybridoma-secreted mouse monoclonal antibody; Isotype confirmed as IgG2a, light chain of kappa class; also called FHUSPA2/10 mAb; anti-UspA2 monoclonal antibody FHUSPA2/10
bactericidal activity (mid-point titer) [1]: 1.88e+06 reciprocal dilution inducing 50% of killing | bactericidal activity (mid-point titer) [2]: 256000 reciprocal dilution inducing 50% of killing | bactericidal activity (mid-point titer) [3]: > 25600 reciprocal dilution inducing 50% of killing | bactericidal activity (mid-point titer) [4]: > 640000 reciprocal dilution inducing 50% of killing | bactericidal activity (mid-point titer) [5]: 386000 reciprocal dilution inducing 50% of killing | bactericidal activity (mid-point titer) [6]: 114000 reciprocal dilution inducing 50% of killing | bactericidal activity (mid-point titer) [7]: > 384000 reciprocal dilution inducing 50% of killing | bactericidal activity (mid-point titer) [8]: < 100 reciprocal dilution inducing 50% of killing | bactericidal activity (mid-point titer) [9]: 528000 reciprocal dilution inducing 50% of killing | binding result [10]: binds
